Test results as given in article PMC9482650, “Quantitative fragmentomics allow affinity mapping of interactomes” (Nature Communications, 2022).

What was measured:
Test in all cases: holdup assay
Set-up in all cases: key: below the threshold = too weak to quantify, mostly under pKd 3.1 to 4
Details in all cases: plain residues with an end cap or a label only (N-terminal biotin on a linker: ttds)
PDZD2_6, O15018 = target: T1, PDZD2_6, O15018
T1 sequence (O15018 2745-2839, limits assumed, looked up): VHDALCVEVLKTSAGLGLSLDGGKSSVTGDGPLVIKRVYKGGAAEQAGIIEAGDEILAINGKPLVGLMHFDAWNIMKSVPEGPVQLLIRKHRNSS

CNKSR3, Q6P9H4 = target: CNKSR3, Q6P9H4
MAST3, O60307 = target: MAST3, O60307
MAGI1_5, Q96QZ7 = target: MAGI1_5, Q96QZ7
SYNPO2L, Q9H987 = target: T2, SYNPO2L, Q9H987
T2 sequence (Q9H987 1-98, limits assumed, looked up): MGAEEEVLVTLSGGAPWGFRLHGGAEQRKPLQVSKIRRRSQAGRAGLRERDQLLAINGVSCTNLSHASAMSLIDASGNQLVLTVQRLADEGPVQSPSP

PDZD2_5, O15018 = target: T3, PDZD2_5, O15018
T3 sequence (O15018 2617-2716, limits assumed, looked up): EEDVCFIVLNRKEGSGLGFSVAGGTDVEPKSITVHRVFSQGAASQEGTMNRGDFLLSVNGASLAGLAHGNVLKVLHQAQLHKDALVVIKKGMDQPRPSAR

PDLIM4, P50479 = target: PDLIM4, P50479
SDCBP_1, O00560 = target: SDCBP_1, O00560
MPP5, Q8N3R9 = target: T4, MPP5, Q8N3R9
T4 sequence (Q8N3R9 251-346, limits assumed, looked up): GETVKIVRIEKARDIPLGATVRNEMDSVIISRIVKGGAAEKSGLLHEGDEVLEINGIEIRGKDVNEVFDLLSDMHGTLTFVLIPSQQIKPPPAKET

PDZD4, Q76G19 = target: T5, PDZD4, Q76G19
T5 sequence (Q76G19 125-224, limits assumed, looked up): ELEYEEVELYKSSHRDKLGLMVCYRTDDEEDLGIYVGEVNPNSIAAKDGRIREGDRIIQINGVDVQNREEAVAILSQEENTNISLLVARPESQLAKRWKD

PDLIM3, Q53GG5 = target: T6, PDLIM3, Q53GG5
T6 sequence (Q53GG5 1-94, limits assumed, looked up): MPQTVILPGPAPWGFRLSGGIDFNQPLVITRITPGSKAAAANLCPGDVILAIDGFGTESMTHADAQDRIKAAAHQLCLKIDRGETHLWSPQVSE

USH1C_2, Q9Y6N9 = target: T7, USH1C_2, Q9Y6N9
T7 sequence (Q9Y6N9 206-303, limits assumed, looked up): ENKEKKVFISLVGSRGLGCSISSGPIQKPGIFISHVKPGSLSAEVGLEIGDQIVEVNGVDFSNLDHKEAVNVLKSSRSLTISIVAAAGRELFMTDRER

SIPA1L3, O60292 = target: T8, SIPA1L3, O60292
T8 sequence (O60292 961-1052, limits assumed, looked up): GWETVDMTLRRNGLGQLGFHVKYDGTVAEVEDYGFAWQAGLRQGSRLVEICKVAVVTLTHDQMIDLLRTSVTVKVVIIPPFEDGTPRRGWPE

SNTB2, Q13425 = target: T9, SNTB2, Q13425
T9 sequence (Q13425 110-208, limits assumed, looked up): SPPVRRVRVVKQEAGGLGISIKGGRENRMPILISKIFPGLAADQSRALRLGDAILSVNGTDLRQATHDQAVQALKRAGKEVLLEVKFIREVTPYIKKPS

MPDZ_7, O75970 = target: T10, MPDZ_7, O75970
T10 sequence (O75970 1146-1253, limits assumed, looked up): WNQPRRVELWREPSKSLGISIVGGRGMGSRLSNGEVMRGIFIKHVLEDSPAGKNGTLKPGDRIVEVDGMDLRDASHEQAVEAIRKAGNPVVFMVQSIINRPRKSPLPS

USH1C_3, Q9Y6N9 = target: T11, USH1C_3, Q9Y6N9
T11 sequence (Q9Y6N9 447-547, limits assumed, looked up): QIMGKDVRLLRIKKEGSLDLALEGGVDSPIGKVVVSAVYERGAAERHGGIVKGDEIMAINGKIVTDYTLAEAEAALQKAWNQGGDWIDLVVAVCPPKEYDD

PARD3B_2, Q8TEW8 = target: PARD3B_2, Q8TEW8
MAGI1_6, Q96QZ7 = target: MAGI1_6, Q96QZ7
PDZRN3_2, Q9UPQ7 = target: T12, PDZRN3_2, Q9UPQ7
T12 sequence (Q9UPQ7 414-513, limits assumed, looked up): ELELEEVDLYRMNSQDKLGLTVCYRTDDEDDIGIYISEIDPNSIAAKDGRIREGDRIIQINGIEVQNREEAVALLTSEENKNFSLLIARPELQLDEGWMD

MAGI3_6, Q5TCQ9 = target: MAGI3_6, Q5TCQ9
DLG5_2, Q8TDM6 = target: DLG5_2, Q8TDM6
GRIP2_2, Q9C0E4 = target: GRIP2_2, Q9C0E4
CNKSR1, Q969H4 = target: T13, CNKSR1, Q969H4
T13 sequence (Q969H4 191-295, limits assumed, looked up): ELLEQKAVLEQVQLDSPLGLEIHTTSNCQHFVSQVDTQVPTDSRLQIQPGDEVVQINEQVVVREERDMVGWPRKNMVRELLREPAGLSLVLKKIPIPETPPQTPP

MAGI3_4, Q5TCQ9 = target: MAGI3_4, Q5TCQ9
Chain of MAGI3_4, Q5TCQ9 (Q5TCQ9 716-815): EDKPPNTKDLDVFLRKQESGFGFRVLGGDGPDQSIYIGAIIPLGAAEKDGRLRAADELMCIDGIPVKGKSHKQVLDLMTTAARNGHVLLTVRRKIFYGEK

Chain of CNKSR3, Q6P9H4 (Q6P9H4 203-303): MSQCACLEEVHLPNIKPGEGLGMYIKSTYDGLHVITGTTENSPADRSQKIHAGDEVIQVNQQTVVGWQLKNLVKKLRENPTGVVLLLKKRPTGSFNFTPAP
Chain of PDLIM4, P50479 (P50479 1-83): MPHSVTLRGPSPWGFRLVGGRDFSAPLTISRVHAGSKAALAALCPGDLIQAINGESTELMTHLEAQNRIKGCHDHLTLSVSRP
Chain of MAGI3_6, Q5TCQ9 (Q5TCQ9 1014-1103): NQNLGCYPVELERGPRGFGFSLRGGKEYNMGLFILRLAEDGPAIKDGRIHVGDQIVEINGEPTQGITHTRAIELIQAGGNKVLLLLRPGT
Chain of SDCBP_1, O00560 (O00560 111-198): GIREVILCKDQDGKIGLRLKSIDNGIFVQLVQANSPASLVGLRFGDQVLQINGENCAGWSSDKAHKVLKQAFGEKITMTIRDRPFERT
Chain of PARD3B_2, Q8TEW8 (Q8TEW8 376-471): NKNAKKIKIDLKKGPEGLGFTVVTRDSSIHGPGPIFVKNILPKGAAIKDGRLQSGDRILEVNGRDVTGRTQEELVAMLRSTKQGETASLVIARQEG
Chain of GRIP2_2, Q9C0E4 (Q9C0E4 137-245): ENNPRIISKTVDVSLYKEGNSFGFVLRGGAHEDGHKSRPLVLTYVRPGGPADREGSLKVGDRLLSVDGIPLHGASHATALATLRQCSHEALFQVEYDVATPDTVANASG
Chain of DLG5_2, Q8TDM6 (Q8TDM6 714-800): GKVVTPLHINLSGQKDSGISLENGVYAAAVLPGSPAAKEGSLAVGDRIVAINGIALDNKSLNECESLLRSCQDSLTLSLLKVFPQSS
Chain of MAST3, O60307 (O60307 945-1048): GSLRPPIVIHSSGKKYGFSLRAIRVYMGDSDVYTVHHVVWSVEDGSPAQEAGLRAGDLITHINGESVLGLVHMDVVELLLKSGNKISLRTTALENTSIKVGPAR
Chain of MAGI1_6, Q96QZ7 (Q96QZ7 1146-1238): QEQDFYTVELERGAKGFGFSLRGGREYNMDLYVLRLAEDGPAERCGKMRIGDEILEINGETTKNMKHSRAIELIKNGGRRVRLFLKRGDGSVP
Chain of MAGI1_5, Q96QZ7 (Q96QZ7 986-1098): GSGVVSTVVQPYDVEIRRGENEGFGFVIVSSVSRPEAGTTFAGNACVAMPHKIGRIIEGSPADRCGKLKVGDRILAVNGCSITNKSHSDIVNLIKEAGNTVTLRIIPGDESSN

Binder	pKd (PDZD2_6, O15018)	pKd (CNKSR3, Q6P9H4)	pKd (MAST3, O60307)	pKd (MAGI1_5, Q96QZ7)	pKd (SYNPO2L, Q9H987)	pKd (PDZD2_5, O15018)	pKd (PDLIM4, P50479)	pKd (SDCBP_1, O00560)	pKd (MPP5, Q8N3R9)	pKd (PDZD4, Q76G19)	pKd (PDLIM3, Q53GG5)	pKd (SIPA1L3, O60292)	pKd (MPDZ_7, O75970)	pKd (USH1C_3, Q9Y6N9)	pKd (PARD3B_2, Q8TEW8)	pKd (MAGI1_6, Q96QZ7)	pKd (PDZRN3_2, Q9UPQ7)	pKd (MAGI3_6, Q5TCQ9)	pKd (DLG5_2, Q8TDM6)	pKd (MAGI3_4, Q5TCQ9)	other results
PPRQRSETQV [HPV82-E6, Q9IR59]	below the threshold	below the threshold	below the threshold	4.37	below the threshold	below the threshold	below the threshold	below the threshold	below the threshold	below the threshold	below the threshold	below the threshold	below the threshold	below the threshold	below the threshold	4.21	below the threshold	below the threshold	below the threshold	below the threshold	pKd (USH1C_2, Q9Y6N9): below the threshold; pKd (SNTB2, Q13425): below the threshold; pKd (GRIP2_2, Q9C0E4): below the threshold; pKd (CNKSR1, Q969H4): below the threshold
SSIDLWETAL [SLC15A5, A6NIM6]	below the threshold	below the threshold	4.91	5.82	below the threshold	below the threshold	below the threshold	below the threshold	below the threshold	below the threshold	below the threshold	below the threshold	6.09	below the threshold	below the threshold	5.18	below the threshold	4.89	below the threshold	below the threshold	pKd (USH1C_2, Q9Y6N9): below the threshold; pKd (SNTB2, Q13425): 5.54; pKd (GRIP2_2, Q9C0E4): below the threshold; pKd (CNKSR1, Q969H4): below the threshold
SGGKRKETLV [NET1, Q7Z628]	below the threshold	below the threshold	below the threshold	4.72	below the threshold	below the threshold	below the threshold	below the threshold	below the threshold	3.72	below the threshold	below the threshold	4.35	below the threshold	below the threshold	below the threshold	below the threshold	below the threshold	4.58	below the threshold	–
SRSRRRETAL [HPV33-E6, P06427]	below the threshold	below the threshold	below the threshold	below the threshold	below the threshold	below the threshold	below the threshold	below the threshold	below the threshold	below the threshold	below the threshold	below the threshold	below the threshold	below the threshold	below the threshold	below the threshold	below the threshold	below the threshold	4.78	below the threshold	pKd (USH1C_2, Q9Y6N9): below the threshold; pKd (SNTB2, Q13425): 4.56; pKd (GRIP2_2, Q9C0E4): below the threshold; pKd (CNKSR1, Q969H4): below the threshold
SHSSKGETAV [FZD7, O75084]	below the threshold	below the threshold	below the threshold	below the threshold	below the threshold	below the threshold	below the threshold	below the threshold	below the threshold	below the threshold	below the threshold	below the threshold	below the threshold	below the threshold	4.42	4.7	below the threshold	4.71	below the threshold	below the threshold	pKd (USH1C_2, Q9Y6N9): below the threshold; pKd (SNTB2, Q13425): below the threshold; pKd (GRIP2_2, Q9C0E4): 4.49; pKd (CNKSR1, Q969H4): below the threshold
KLVIKTETTV [RASSF6, Q6ZTQ3]	below the threshold	below the threshold	below the threshold	4.23	below the threshold	below the threshold	4.09	below the threshold	below the threshold	below the threshold	below the threshold	below the threshold	below the threshold	below the threshold	below the threshold	below the threshold	below the threshold	4.15	4.33	below the threshold	pKd (USH1C_2, Q9Y6N9): below the threshold; pKd (SNTB2, Q13425): 4.2; pKd (GRIP2_2, Q9C0E4): below the threshold; pKd (CNKSR1, Q969H4): below the threshold
